Data on one substance can be found in PMC6347818.

pKd: −log10 of the molar value.

Assay [1] deals with recombinant Plasmodium vivax Apical Membrane Antigen 1, PvAMA1-His6 (Plasmodium vivax) (UniProt Q9TY14). Description: SPR; Biacore T200; PvAMA1-His6 amine-coupled on a CM5 chip; peptides injected at 50 µL/min, 25 °C, PBS; steady-state model, apparent KD.
The target is the same in assay [2]. Description: ITC; MicroCal VP-ITC; 9.43 µmol/L PvAMA1-His6 in the cell titrated with 300 µmol/L peptide (10 µL injections), 25 °C, PBS; one-site model.

Regarding cyclic PvRON2 (2035-2074) peptide, in assay [1], the pKd was 4.62. Further, in assay [2], the Ka was 300000 M⁻¹, the dH was -36 kcal/mol and the stoichiometry N (peptide/protein) was determined as 0.6.
